Measured values: patent US10105442B2, “Treatment of diabetes type 1 using GLP-1 and anti-IL-21” (Novo Nordisk A/S, priority 2014, dated 2018)

System: recent-onset NOD mouse model
Assay: Determination of blood glucose effect in recent-onset NOD model (Assay V; Examples 1-3)
Assay type: in vivo
Experimental: Assay (V): Determination of Blood Glucose Effect in NOD Model
The purpose of this experiment was to determine the effect of administration of a GLP-1 agonist, such as the GLP-1 peptide, and/or an inhibitor of IL-21 function on blood glucose.
The recent-onset NOD mouse model was used. Mice were screened twice weekly and diabetes onset was defined as 2 consecutive blood glucose values of >250 mg/dL. Mice were enrolled into the experiment starting at 11 weeks of age and continued to be enrolled through 26 weeks of age. Dosing was weight based.
Blood glucose was measured by using a blood glucose meter (Bayer Contour USB) with the corresponding blood glucose strips. Mice with a blood glucose level>250 mg/dL on two consecutive days were considered diabetic. […] If the measurement was again >250 mg/dL, the animal was recorded as diabetic, enrolled into a treatment group, and was monitored further until it reached two consecutive readings of >600 mg/dL. At this time the mouse was sacrificed. Mice were also sacrificed before they reached a blood glucose value of >600 mg/dL if their overall condition was deteriorating, as determined by weight and/or overall appearance.
The mouse surrogate anti-IL-21 antibody was prepared by immunization of 6 to 8 week old BALB/c mice by s.c. injection with recombinant mouse IL-21 in a mixture of adjuvants. […] (SEQ ID No 13).
Anti-IL-21 was administered i.p. five times twice weekly starting immediately after inclusion of mice, i.e. from Day 0. […] Mouse surrogate anti-IL-21 is an mIgG1/kappa isotype with the VL amino acid sequence: […] […] […] (SEQ ID NO:26), and the VH amino acid sequence: […] […] […] (SEQ ID NO:27). […] Before use, anti-IL-21 was diluted in buffer (20 mM phosphate, 150 mM NaCl, pH=7.4). Aliquots of anti-IL-21 for injection into the animals were only thawed once.
Enrolment of mice of as described in Example 1 was continued adding 9, 8, 8 and 8 subjects to the treatment groups 1 to 4, respectively.

B1: Anti-IL-21: Mouse surrogate anti-IL-21 antibody, mIgG1/kappa isotype, VL SEQ ID NO:26 and VH SEQ ID NO:27, raised against recombinant mouse IL-21 (antibody, V domains shown)
VH: MNFGPSLIFLVLILKGVQCEVQLVESGGGLVKPGGSLKLSCAASGFTFNRYSMSWVRQSPEKRLEWVAEISVGGSYTQYVDIVTGRFTISRDNAKNTLYLEMSSLRSEDTAMYYCARLYYSGSGDSYYYAMDYWGQGTSVTVSS
VL: MDFQVQIFSFLLISASVILSRGQTVLIQSPAIMSASPGEKVTMTCSASSSVSYMHWYQQKSGTSPKRWIYDTSKLASGVPARFSGSGSGTSYSLTISSMEAEDAATYYCQQWNSNPPTFGGGTKLEMK
Effect on hyperglycemia (in words) (Example 1, NOD mice, 70 days): able to reverse hyperglycemia in some of the mice | Mice in which diabetes was reversed (BGV lowered to below 250 mg/dL) (Examples 1 and 2 compiled, FIG. 5A, 35 days period): half of the mice | Number of mice surviving / remaining viable throughout the study period of 70 days (in words) (Examples 1 and 2 compiled, FIGS. 3 and 4): substantial number | Average blood glucose +/− SD (Table 1, Example 1 mice (N = 10 per group at onset), day 0 post diabetes onset): 351 ± 56 mg/dL | Average blood glucose +/− SD (Table 1, Example 1 mice, day 4 post diabetes onset): 370 ± 73 mg/dL | Average blood glucose +/− SD (Table 1, Example 1 mice, day 7 post diabetes onset): 404 ± 93 mg/dL | Average blood glucose +/− SD (Table 1, Example 1 mice, day 11 post diabetes onset): 405 ± 160 mg/dL | Average blood glucose +/− SD (Table 1, Example 1 mice, day 14 post diabetes onset): 379 +/− 139 (n = 8) mg/dL | Average blood glucose +/− SD (Table 1, Example 1 mice, day 18 post diabetes onset): 351 +/− 178 (n = 7) mg/dL | Average blood glucose +/− SD (Table 1, Example 1 mice, day 21 post diabetes onset): 285 +/− 151 (n = 6) mg/dL | Average blood glucose +/− SD (Table 1, Example 1 mice, day 25 post diabetes onset): 279 +/− 169 (n = 6) mg/dL | Average blood glucose +/− SD (Table 1, Example 1 mice, day 28 post diabetes onset): 204 +/− 95 (n = 5) mg/dL | Average blood glucose +/− SD (Table 1, Example 1 mice, day 32 post diabetes onset): 221 +/− 101 (n = 5) mg/dL | Average blood glucose +/− SD (Table 1, Example 1 mice, day 35 post diabetes onset): 205 +/− 116 (n = 5) mg/dL | Average blood glucose +/− SD (Table 1, Example 1 mice, day 39 post diabetes onset (liraglutide withdrawn after day 35)): 224 +/− 140 (n = 5) mg/dL | Average blood glucose +/− SD (Table 1, Example 1 mice, day 42 post diabetes onset (liraglutide withdrawn after day 35)): 215 +/− 112 (n = 5) mg/dL | Average blood glucose +/− SD (Table 1, Example 1 mice, day 46 post diabetes onset (liraglutide withdrawn after day 35)): 201 +/− 122 (n = 5) mg/dL | Average blood glucose +/− SD (Table 1, Example 1 mice, day 49 post diabetes onset (liraglutide withdrawn after day 35)): 217 +/− 140 (n = 5) mg/dL | Average blood glucose +/− SD (Table 1, Example 1 mice, day 53 post diabetes onset (liraglutide withdrawn after day 35)): 229 +/− 186 (n = 5) mg/dL | Average blood glucose +/− SD (Table 1, Example 1 mice, day 56 post diabetes onset (liraglutide withdrawn after day 35)): 128 +/− 10 (n = 4) mg/dL | Average blood glucose +/− SD (Table 1, Example 1 mice, day 60 post diabetes onset (liraglutide withdrawn after day 35)): 174 +/− 59 (n = 4) mg/dL | Average blood glucose +/− SD (Table 1, Example 1 mice, day 63 post diabetes onset (liraglutide withdrawn after day 35)): 156 +/− 30 (n = 4) mg/dL | Average blood glucose +/− SD (Table 1, Example 1 mice, day 67 post diabetes onset (liraglutide withdrawn after day 35)): 138 +/− 16 (n = 4) mg/dL | Average blood glucose +/− SD (Table 1, Example 1 mice, day 70 post diabetes onset (liraglutide withdrawn after day 35)): 153 +/− 30 (n = 4) mg/dL | Average blood glucose +/− SD (Table 2, additional mice (Example 2), day 0 post diabetes onset): 353 +/− 59 (n = 8) mg/dL | Average blood glucose +/− SD (Table 2, additional mice (Example 2), day 4 post diabetes onset): 326 +/− 104 (n = 8) mg/dL | Average blood glucose +/− SD (Table 2, additional mice (Example 2), day 7 post diabetes onset): 375 +/− 103 (n = 8) mg/dL | Average blood glucose +/− SD (Table 2, additional mice (Example 2), day 11 post diabetes onset): 361 +/− 125 (n = 8) mg/dL | Average blood glucose +/− SD (Table 2, additional mice (Example 2), day 14 post diabetes onset): 338 +/− 153 (n = 8) mg/dL | Average blood glucose +/− SD (Table 2, additional mice (Example 2), day 18 post diabetes onset): 336 +/− 183 (n = 8) mg/dL | Average blood glucose +/− SD (Table 2, additional mice (Example 2), day 21 post diabetes onset): 248 +/− 153 (n = 6) mg/dL | Average blood glucose +/− SD (Table 2, additional mice (Example 2), day 28 post diabetes onset): 219 +/− 162 (n = 6) mg/dL | Average blood glucose +/− SD (Table 2, additional mice (Example 2), day 35 post diabetes onset): 147 +/− 15 (n = 5) mg/dL | Average blood glucose +/− SD (Table 2, additional mice (Example 2), day 42 post diabetes onset (liraglutide withdrawn after day 35)): 264 +/− 121 (n = 2^#) mg/dL | Average blood glucose +/− SD (Table 2, additional mice (Example 2), day 49 post diabetes onset (liraglutide withdrawn after day 35)): 118 +/− 17 (n = 2) mg/dL | Average blood glucose +/− SD (Table 2, additional mice (Example 2), day 56 post diabetes onset (liraglutide withdrawn after day 35)): 286 +/− 107 (n = 2) mg/dL | Average blood glucose +/− SD (Table 2, additional mice (Example 2), day 63 post diabetes onset (liraglutide withdrawn after day 35)): 314 +/− 157 (n = 2) mg/dL | Average blood glucose +/− SD (Table 2, additional mice (Example 2), day 70 post diabetes onset (liraglutide withdrawn after day 35)): 400 +/− 108 (n = 2) mg/dL | Average blood glucose +/− SD (Table 3, all mice (Examples 1 and 2 compiled), day 0 post diabetes onset): 352 +/− 57 (n = 18) mg/dL | Average blood glucose +/− SD (Table 3, all mice (Examples 1 and 2 compiled), day 4 post diabetes onset): 351 +/− 91 (n = 18) mg/dL | Average blood glucose +/− SD (Table 3, all mice (Examples 1 and 2 compiled), day 7 post diabetes onset): 391 +/− 99 (n = 18) mg/dL | Average blood glucose +/− SD (Table 3, all mice (Examples 1 and 2 compiled), day 11 post diabetes onset): 385 +/− 147 (n = 18) mg/dL | Average blood glucose +/− SD (Table 3, all mice (Examples 1 and 2 compiled), day 14 post diabetes onset): 358 +/− 148 (n = 16) mg/dL | Average blood glucose +/− SD (Table 3, all mice (Examples 1 and 2 compiled), day 18 post diabetes onset): 343 +/− 181 (n = 15) mg/dL | Average blood glucose +/− SD (Table 3, all mice (Examples 1 and 2 compiled), day 21 post diabetes onset): 267 +/− 153 (n = 12) mg/dL | Average blood glucose +/− SD (Table 3, all mice (Examples 1 and 2 compiled), day 28 post diabetes onset): 212 +/− 136 (n = 11) mg/dL | Average blood glucose +/− SD (Table 3, all mice (Examples 1 and 2 compiled), day 35 post diabetes onset): 176 +/− 88 (n = 10) mg/dL | Average blood glucose +/− SD (Table 3, all mice (Examples 1 and 2 compiled), day 42 post diabetes onset (liraglutide withdrawn after day 35)): 229 +/− 117 (n = 7^#) mg/dL | Average blood glucose +/− SD (Table 3, all mice (Examples 1 and 2 compiled), day 49 post diabetes onset (liraglutide withdrawn after day 35)): 189 +/− 127 (n = 7) mg/dL | Average blood glucose +/− SD (Table 3, all mice (Examples 1 and 2 compiled), day 56 post diabetes onset (liraglutide withdrawn after day 35)): 181 +/− 97 (n = 6) mg/dL | Average blood glucose +/− SD (Table 3, all mice (Examples 1 and 2 compiled), day 63 post diabetes onset (liraglutide withdrawn after day 35)): 209 +/− 119 (n = 6) mg/dL | Average blood glucose +/− SD (Table 3, all mice (Examples 1 and 2 compiled), day 70 post diabetes onset (liraglutide withdrawn after day 35)): 236 +/− 134 (n = 6) mg/dL
